Residue numbers refer to the chain shown, from its start.

Assay [1] deals with T1, cynomolgus monkey CD3 expressed on primary T cells (cynomolgus monkey, UniProt Q95LI5 22-198; Q95LI8 22-171; Q95LI7 23-181).
T1 construct: whole, on cells; CD3 complex on purified cynomolgus monkey T cells; also called cyno CD3
As to the kind of experiment: flow cytometry, 25 nM, cyno primary T cells. The method, then: (§1) Purified antibodies were confirmed to bind CD3 expressed on cells using the CytoFLEX S or LX flow cytometers (Beckman Coulter). Antibodies were diluted to 25 nM in FACS buffer (PBS+2% FBS) and were incubated with CD3-expressing cells for 30 minutes at 4° C. […] The median fluorescence intensity of the binding signal for each antibody was normalized to the isotype control to obtain a fold over isotype value. An antibody with a fold over isotype (FOI) of ≥10 was considered to be positive for binding.

Assay [2] deals with T2, human CD3 expressed on cells (human, UniProt P07766 23-207; P04234 22-171; P09693 23-182).
T2 construct: whole, on cells; CD3 complex on Jurkat cells and on human primary T cells
T2 sequence (P07766 23-207, chain 1 of 3): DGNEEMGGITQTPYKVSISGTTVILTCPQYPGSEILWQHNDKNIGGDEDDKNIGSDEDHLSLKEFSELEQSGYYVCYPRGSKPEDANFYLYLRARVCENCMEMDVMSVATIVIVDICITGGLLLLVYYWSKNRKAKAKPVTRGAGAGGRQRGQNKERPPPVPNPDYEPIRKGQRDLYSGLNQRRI
T2 sequence (P04234 22-171, chain 2 of 3): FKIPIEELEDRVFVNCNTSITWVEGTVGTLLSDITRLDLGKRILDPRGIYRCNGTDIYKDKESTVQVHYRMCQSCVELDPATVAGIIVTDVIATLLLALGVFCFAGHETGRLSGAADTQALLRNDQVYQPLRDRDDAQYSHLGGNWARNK
T2 sequence (P09693 23-182, chain 3 of 3): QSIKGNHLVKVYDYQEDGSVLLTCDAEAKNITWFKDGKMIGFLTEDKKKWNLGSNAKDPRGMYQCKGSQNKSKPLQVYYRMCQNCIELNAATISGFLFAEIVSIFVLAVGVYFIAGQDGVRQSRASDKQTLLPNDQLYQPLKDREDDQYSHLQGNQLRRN
As to the kind of experiment: flow cytometry, 25 nM. The method, then: as §1

The target of assay [3] is T3, cynomolgus monkey CD3 expressed on cyno primary T cells (cynomolgus monkey, UniProt Q95LI5 22-198; Q95LI8 22-171; Q95LI7 23-181).
T3 construct: whole, on cells; CD3 complex on purified cynomolgus monkey CD3 pan T cells; also called cyno CD3
T3 sequence (Q95LI5 22-198, chain 1 of 3): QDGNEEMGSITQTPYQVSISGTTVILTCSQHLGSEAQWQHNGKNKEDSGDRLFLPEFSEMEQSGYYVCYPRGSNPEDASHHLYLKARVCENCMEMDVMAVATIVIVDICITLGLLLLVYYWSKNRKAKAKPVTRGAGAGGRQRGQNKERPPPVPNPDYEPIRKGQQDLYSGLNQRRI
T3 sequence (Q95LI8 22-171, chain 2 of 3): as the sequence (P04234 22-171, chain 2 of 3) above, with I5V, N15K, I20V, S32T, D33N, I34N, T64A, S74N, V83L, H141R counted along it
T3 sequence (Q95LI7 23-181, chain 3 of 3): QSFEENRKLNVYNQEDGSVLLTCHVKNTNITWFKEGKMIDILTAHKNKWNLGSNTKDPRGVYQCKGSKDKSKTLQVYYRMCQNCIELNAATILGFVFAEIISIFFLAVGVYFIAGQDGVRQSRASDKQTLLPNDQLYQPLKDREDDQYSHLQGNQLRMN
The assay can be described thus: flow cytometry, cyno primary T cells. Here is the method: as §1

T1 sequence (Q95LI5 22-198, chain 1 of 3): as the sequence (Q95LI5 22-198, chain 1 of 3) above
T1 sequence (Q95LI8 22-171, chain 2 of 3): as the sequence (P04234 22-171, chain 2 of 3) above, with I5V, N15K, I20V, S32T, D33N, I34N, T64A, S74N, V83L, H141R counted along it
T1 sequence (Q95LI7 23-181, chain 3 of 3): as the sequence (Q95LI7 23-181, chain 3 of 3) above

B1: mAb 90 (antibody, V domains shown)
VH: EVQLVESGGGLVQPGGSLKLSCAASGFTFSGSAMHWVRQASGKGLEWVGRIRTKPNSYATSYAASVKDRFTISRDDSKNTAYLQMNSLKTEDTAVYYCIRGELEPWGQGTLVTVSS
VL: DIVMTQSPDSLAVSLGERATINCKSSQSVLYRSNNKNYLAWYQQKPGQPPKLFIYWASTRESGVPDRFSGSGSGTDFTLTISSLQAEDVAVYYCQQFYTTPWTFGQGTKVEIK
As for B1, the binding result in assay [1] is reported as “no binding (tested: FOI >=10 = positive)”.

B2: mAb 42 (antibody, V domains shown)
VH: QAQLVQSGSELKKPGASVKVSCKASGYTFTKHSMNWVRQAPGQGLEWMGWINTNTGNPTYAQGFTGRFVFSLDTSVTTAYLQISSLKAEDTAVYYCAREGDYDFWSGFFNFDYWGQGTLVTVSS
VL: DIQMTQSPSSLSASVGDRVTITCRASQGIRNDLGWYQQKPGKAPKRLIYAASSLQSGVPSRFSGSGSGAEFTLTISSLQPEDFATYYCLQHNSYPRTFGQGTKVEIK
As for B2, in assay [2], the “Human primary T Cell Binding (FOI)” value amounted to 96.2 FOI and the “Jurkat Cell Binding (FOI)” value came out at 111 FOI. In assay [1], the binding result is “no binding (tested: FOI >=10 = positive)”.

B3: mAb 272 (antibody, V domains shown)
VH: EIQLVESGGGLVQPGESLKLSCAGSGFTFSVSAMHWVRQASGKGLEWVGRIRNKANSYATAYAASVKGRFTLSRDDSKNTAYLQMNSLKTEDTAVYYCSSYYYLSGTYYNYWGQGTLVTVSS
VL: B2 VL with G28V, Y49H, A50S, S56G, A69T, L89Q, S93V, Y94N, R96C, V104L
notes: VH/VL only
For the molecule B3, in assay [3], the binding result was “no binding (tested: FOI <10 (FOI >=10 = positive); 25 nM)”.

B4: mAb 271 (antibody, V domains shown)
VH: B3 VH with N86D
VL: B2 VL with G28V, Y49H, A50S, S56G, A69T, L89Q, S93V, Y94N, R96C, V104L
notes: VH/VL only
As to B4, the binding result in assay [3] is given as “no binding (tested: FOI <10 (FOI >=10 = positive); 25 nM)”.

B5: mAb 44 (antibody, V domains shown)
VH: B2 VH with K31R, S33A, T77S, Q82K, A97V
VL: B2 VL with Y36F, K45T
For B5, in assay [2], the “Human primary T Cell Binding (FOI)” value came out at 110 FOI and the “Jurkat Cell Binding (FOI)” value stood at 131 FOI. For the same molecule, the binding result in assay [1] is recorded as “no binding (tested: FOI >=10 = positive)”.

B6: mAb 270 (antibody, V domains shown)
VH: B3 VH with A63D, K78R
VL: B2 VL with G28V, Y49H, A50S, S56G, A69T, L89Q, S93V, Y94N, R96C, V104L
notes: VH/VL only
As for B6, the binding result in assay [3] is “no binding (tested: FOI <10 (FOI >=10 = positive); 25 nM)”.

B7: mAb 47 (antibody, V domains shown)
VH: B2 VH
VL: B2 VL with A69T
On to B7, for which, in assay [2], the “Human primary T Cell Binding (FOI)” value came to 136 FOI and the “Jurkat Cell Binding (FOI)” value turned out to be 112 FOI. For the same molecule, the binding result in assay [1] is given as “no binding (tested: FOI >=10 = positive)”.

B8: mAb 208 (antibody, V domains shown)
VH: QEQLVESGGGVVQPGRSLRLSCAASGFTFSSYGMHWVRQAPGKGLEWVAIIWYNGKKKDYADSVKGRFTISRDNSKSTLYLQMNSLRAEDTAVYYCARGLGYNWFDPWGQGTLVTVSS
VL: EIVLTQSPDFQSVTPMEKVTIACRASQNIGSSLHWYQQKPDQSPKLLIKYASQSFSGVPSRFSGSGSGTDFTLTINSLEAEDAATYYCHQSSSFPNTFGQGTKLEIK
notes: VH/VL only
Consider B8, for which the binding result in assay [3] is on record as “no binding (tested: FOI <10 (FOI >=10 = positive); 25 nM)”.

B9: mAb 235 (antibody, V domains shown)
VH: QGKLVESGGGVVQPGRSLRLSCVASGFTFSGYGMHWVRQAPNKGLEWVAIIYYDGKNKYYADSVKGRFTVSRDNSKNTLYLQLNNLRAEDTAVYYCVRGPGYNWFDPWGQGTLVTVSS
VL: B8 VL with M16K, A22T, L47F, Y50H, F94L, N96Y
notes: VH/VL only
For B9, the binding result in assay [3] is given as “no binding (tested: FOI <10 (FOI >=10 = positive); 25 nM)”.

B10: mAb 233 (antibody, V domains shown)
VH: B9 VH with A40V, V70I, T78M, L83M, N85S
VL: B8 VL with M16K, A22T, Y50L, A51T, F94L, N96Y
notes: VH/VL only
For B10, the binding result in assay [3] is “no binding (tested: FOI <10 (FOI >=10 = positive); 25 nM)”.

B11: mAb 236 (antibody, V domains shown)
VH: B9 VH with G2V, N42G, V64A, N85S, P107S
VL: B8 VL with M16K, A22T, N28S, S32N, A51T, F94L, N96Y
notes: VH/VL only
Consider B11, for which, in assay [3], the binding result is recorded as “no binding (tested: FOI <10 (FOI >=10 = positive); 25 nM)”.

B12: mAb 242 (antibody, V domains shown)
VH: B9 VH with A40V, V70I, T78M, L83M, N85S, A88V
VL: B8 VL with M16K, A22T, Y50L, A51T, F94L, N96Y
notes: VH/VL only
For the molecule B12, the binding result in assay [3] is listed as “no binding (tested: FOI <10 (FOI >=10 = positive); 25 nM)”.

B13: mAb 243 (antibody, V domains shown)
VH: B9 VH with V70I, T78M, L83M, N85S, A88V
VL: B8 VL with M16K, A22T, Y50H, A51T, D70A, F94L, N96Y
notes: VH/VL only
As for B13, the binding result in assay [3] was “no binding (tested: FOI <10 (FOI >=10 = positive); 25 nM)”.

B14: mAb 245 (antibody, V domains shown)
VH: B9 VH with G2V, N42G, A61V, V70I, N85S, P107L, S117A
VL: B8 VL with M16K, A22T, N28S, F94L, N96Y
notes: VH/VL only
Turning to B14, the binding result in assay [3] is recorded as “no binding (tested: FOI <10 (FOI >=10 = positive); 25 nM)”.

B15: mAb 232 (antibody, V domains shown)
VH: B8 VH with K56R, S77N
VL: B8 VL with N28S, F94L, N96Y
notes: VH/VL only
Turning to B15, the binding result in assay [3] is reported as “no binding (tested: FOI <10 (FOI >=10 = positive); 25 nM)”.

B16: mAb 239 (antibody, V domains shown)
VH: B9 VH with G2E, Y32F, N42G, V70I, L83M, N85S
VL: B8 VL with M16K, A22T, N28S, F94L, N96Y
notes: VH/VL only
As to B16, the binding result in assay [3] is “no binding (tested: FOI <10 (FOI >=10 = positive); 25 nM)”.

B17: mAb 244 (antibody, V domains shown)
VH: B8 VH with S30R, N54D, K57N, D59Y, S77N, A88V, S117T
VL: B8 VL with M16K, A22T, N28S, S54T, A80V, F94L
notes: VH/VL only
Turning to B17, the binding result in assay [3] is recorded as “no binding (tested: FOI <10 (FOI >=10 = positive); 25 nM)”.

B18: mAb 231 (antibody, V domains shown)
VH: B8 VH with W52Y, S77N, A97V
VL: B8 VL with M16K, A22T, N28S, S93N, F94L, N96Y
notes: VH/VL only
As for B18, the binding result in assay [3] was “no binding (tested: FOI <10 (FOI >=10 = positive); 25 nM)”.

B19: mAb 241 (antibody, V domains shown)
VH: B8 VH with T28I, K58R, S77N
VL: B8 VL with E1A, M16K, A22T, S92G, F94L, N96Y
notes: VH/VL only
Turning to B19, the binding result in assay [3] is on record as “no binding (tested: FOI <10 (FOI >=10 = positive); 25 nM)”.

B20: mAb 249 (antibody, V domains shown)
VH: B8 VH with S30R, N54D, K57N, D59Y, S77N
VL: B8 VL with M16K, A22T, N28S, F94L, N96Y
notes: VH/VL only
With B20, in assay [3], the binding result is listed as “no binding (tested: FOI <10 (FOI >=10 = positive); 25 nM)”.

B21: mAb 247 (antibody, V domains shown)
VH: B8 VH with T28I, K58R, S77N
VL: B8 VL with M16K, E17D, A22T, N28S, S93T, F94L, N96Y
notes: VH/VL only
Take B21: the binding result in assay [3] is recorded as “no binding (tested: FOI <10 (FOI >=10 = positive); 25 nM)”.

B22: mAb 227 (antibody, V domains shown)
VH: B8 VH with T28I, K58R, S77N
VL: B8 VL with M16K, A22T, N28S, F94L, N96Y
notes: VH/VL only
As to B22, the binding result in assay [3] is “no binding (tested: FOI <10 (FOI >=10 = positive); 25 nM)”.

B23: mAb 234 (antibody, V domains shown)
VH: B8 VH with T28I, K58R, S77N, A88V, P107S
VL: B8 VL with M16K, A22T, N28S, F94L, N96Y
notes: VH/VL only
In the case of B23, in assay [3], the binding result is recorded as “no binding (tested: FOI <10 (FOI >=10 = positive); 25 nM)”.

B24: mAb 246 (antibody, V domains shown)
VH: B8 VH with S30R, N54D, K57N, D59Y, S77N
VL: B8 VL with M16K, A22T, N28S, A51G, F94L, N96Y
notes: VH/VL only
Regarding B24, the binding result in assay [3] was “no binding (tested: FOI <10 (FOI >=10 = positive); 25 nM)”.

B25: mAb 265 (antibody, V domains shown)
VH: EVQLLESGGGLVQPGGSLRLSCAASGFTFRSSSMTWVRQAPGKGLEWVSGIRGSGGRTYDAESVKGRFTISRDNSKNTLYLQMNSLRAEDTAEYFCAKLYDYYNDYMDVWGKGTTVTVSS
VL: SYELTQPLSVSVALGQTARITCGGNNIGSKNVHWYQQKPGQAPVLVIYRDSNRPSGIPERFSGSNSGNTATLTISRAQAGDEADYYCQVWDSSTAVFGGGTQLTAL
notes: VH/VL only
On to B25, for which the binding result in assay [3] was “no binding (tested: FOI <10 (FOI >=10 = positive); 25 nM)”.

B26: mAb 152 (antibody, V domains shown)
VH: QVQLVQSGAEVKKPGASVKVSCKASGYTFTAYHTHWVRQAPGQGLEWMGWIYPKSGRTTYTQKFQGRVTMTRDTSISTVYMELSRLKSDDTAVYYCARVGALLFDYWGQGTLVTVSS
VL: not shown
Take B26: the binding result in assay [1] is given as “no binding (tested: FOI >=10 = positive)”.

B27: mAb 109 (antibody, V domains shown)
VH: QVQLVESGGGVVQPGRSLRLSCVASGFPFRSYGMHWVRQAPGKGLEWVAFIWYDGSNKYYADSVRGRFTISRDNFKKMVYLQMNSLRAEDTAVYYCARDLAGIYAFDVWGQGTVVTVSS
VL: EIVMTQSPATLSVSPGERATLSCRASQSVSSNLAWYQQKPGQAPRLLIYGASTRATGIPARFSGSGSGTEFTLTVSSLQSEDFAIYYCQQYNNWRPLTFGGGTKVEIK
With B27, in assay [1], the binding result is reported as “no binding (tested: FOI >=10 = positive)”.

For the origin of these results see patent publication US20230295310A1 (ABCELLERA BIOLOGICS, published 2023).
